Experimental data from publication PMC12102759 (2025).

B1: RNF115 peptide 69-84 (E3 ubiquitin-protein ligase RNF115), 16-mer library wild type / MDM2 SWIB (MDM2 SWIB/MDM2 domain, residues 17-125) (parent complex)
chain 1: THFAELWGHLDHTMFF
chain 2: SQIPASEQETLVRPKPLLLKLLKSVGAQKDTYTMKEVLFYLGQYIMTKRLYDEKQQHIVYCSNDLLGDLFGVPSFSVKEHRKIYTMIYRNLVVVNQQESSDSGTSVSEN

Variants of: B1
Assay: proteomic peptide phage display deep mutational scan (ProP-PD DMS): M13 P8 16-mer library selected against immobilised GST-tagged bait for four days (rounds), NGS of the eluted pools per day and pseudo-replica; bait immobilised on MaxiSorp plates (10 µg), library pre-cleared on GST, 2 h binding at 4 °C, five washes; one round per day, days 1-4; value from days 2 and 3

Row | Variant | screen value
1 | chain 1 E5A | 0.000481 average fractional NGS count over selection days 2 and 3 (reads of this peptide / all reads for the bait, averaged over …
2 | chain 1 E5W | 0.00018 average fractional NGS count over selection days 2 and 3 (reads of this peptide / all reads for the bait, averaged over …
3 | chain 1 E5V | 0.000931 average fractional NGS count over selection days 2 and 3 (reads of this peptide / all reads for the bait, averaged over …
4 | chain 1 L10M | 0.00099 average fractional NGS count over selection days 2 and 3 (reads of this peptide / all reads for the bait, averaged over …
5 | chain 1 L10I | 0.00104 average fractional NGS count over selection days 2 and 3 (reads of this peptide / all reads for the bait, averaged over …
6 | chain 1 L10V | 0.000492 average fractional NGS count over selection days 2 and 3 (reads of this peptide / all reads for the bait, averaged over …
7 | chain 1 L10F | 0.00105 average fractional NGS count over selection days 2 and 3 (reads of this peptide / all reads for the bait, averaged over …
8 | chain 1 G8M | 0.00018 average fractional NGS count over selection days 2 and 3 (reads of this peptide / all reads for the bait, averaged over …
9 | chain 1 G8H | 0.00286 average fractional NGS count over selection days 2 and 3 (reads of this peptide / all reads for the bait, averaged over …
10 | chain 1 G8Y | 0.00157 average fractional NGS count over selection days 2 and 3 (reads of this peptide / all reads for the bait, averaged over …
11 | chain 1 G8Q | 0.0015 average fractional NGS count over selection days 2 and 3 (reads of this peptide / all reads for the bait, averaged over …
12 | chain 1 G8A | 0.000308 average fractional NGS count over selection days 2 and 3 (reads of this peptide / all reads for the bait, averaged over …
13 | chain 1 G8N | 0.00558 average fractional NGS count over selection days 2 and 3 (reads of this peptide / all reads for the bait, averaged over …
14 | chain 1 G8T | 0.00199 average fractional NGS count over selection days 2 and 3 (reads of this peptide / all reads for the bait, averaged over …
15 | chain 1 G8W | 0.000927 average fractional NGS count over selection days 2 and 3 (reads of this peptide / all reads for the bait, averaged over …
16 | chain 1 G8R | 0.000199 average fractional NGS count over selection days 2 and 3 (reads of this peptide / all reads for the bait, averaged over …
17 | chain 1 L6A | 0.00179 average fractional NGS count over selection days 2 and 3 (reads of this peptide / all reads for the bait, averaged over …
18 | chain 1 L6M | 0.000951 average fractional NGS count over selection days 2 and 3 (reads of this peptide / all reads for the bait, averaged over …
19 | chain 1 L6V | 0.000773 average fractional NGS count over selection days 2 and 3 (reads of this peptide / all reads for the bait, averaged over …
20 | chain 1 L6F | 0.00096 average fractional NGS count over selection days 2 and 3 (reads of this peptide / all reads for the bait, averaged over …
21 | chain 1 D11P | 0.000507 average fractional NGS count over selection days 2 and 3 (reads of this peptide / all reads for the bait, averaged over …
22 | chain 1 D11F | 8.75e-05 average fractional NGS count over selection days 2 and 3 (reads of this peptide / all reads for the bait, averaged over …
23 | chain 1 D11Q | 0.000111 average fractional NGS count over selection days 2 and 3 (reads of this peptide / all reads for the bait, averaged over …
24 | chain 1 D11T | 0.000142 average fractional NGS count over selection days 2 and 3 (reads of this peptide / all reads for the bait, averaged over …
25 | chain 1 D11S | 0.00405 average fractional NGS count over selection days 2 and 3 (reads of this peptide / all reads for the bait, averaged over …

Row | Variant | screen value
26 | chain 1 D11M | 0.000791 average fractional NGS count over selection days 2 and 3 (reads of this peptide / all reads for the bait, averaged over …
27 | chain 1 D11E | 0.000686 average fractional NGS count over selection days 2 and 3 (reads of this peptide / all reads for the bait, averaged over …
28 | chain 1 D11A | 0.0112 average fractional NGS count over selection days 2 and 3 (reads of this peptide / all reads for the bait, averaged over …
29 | chain 1 D11L | 0.000447 average fractional NGS count over selection days 2 and 3 (reads of this peptide / all reads for the bait, averaged over …
30 | chain 1 D11Y | 0.000538 average fractional NGS count over selection days 2 and 3 (reads of this peptide / all reads for the bait, averaged over …
31 | chain 1 F3T | 9.19e-05 average fractional NGS count over selection days 2 and 3 (reads of this peptide / all reads for the bait, averaged over …
32 | chain 1 F3Q | 0.000412 average fractional NGS count over selection days 2 and 3 (reads of this peptide / all reads for the bait, averaged over …
33 | chain 1 M14Y | 0.00313 average fractional NGS count over selection days 2 and 3 (reads of this peptide / all reads for the bait, averaged over …
34 | chain 1 M14P | 0.00244 average fractional NGS count over selection days 2 and 3 (reads of this peptide / all reads for the bait, averaged over …
35 | chain 1 M14N | 0.00152 average fractional NGS count over selection days 2 and 3 (reads of this peptide / all reads for the bait, averaged over …
36 | chain 1 M14D | 0.00118 average fractional NGS count over selection days 2 and 3 (reads of this peptide / all reads for the bait, averaged over …
37 | chain 1 M14H | 0.0015 average fractional NGS count over selection days 2 and 3 (reads of this peptide / all reads for the bait, averaged over …
38 | chain 1 M14Q | 0.000925 average fractional NGS count over selection days 2 and 3 (reads of this peptide / all reads for the bait, averaged over …
39 | chain 1 M14F | 0.000469 average fractional NGS count over selection days 2 and 3 (reads of this peptide / all reads for the bait, averaged over …
40 | chain 1 M14E | 0.000177 average fractional NGS count over selection days 2 and 3 (reads of this peptide / all reads for the bait, averaged over …
41 | chain 1 M14W | 0.00207 average fractional NGS count over selection days 2 and 3 (reads of this peptide / all reads for the bait, averaged over …
42 | chain 1 M14S | 0.00183 average fractional NGS count over selection days 2 and 3 (reads of this peptide / all reads for the bait, averaged over …
43 | chain 1 T13Q | 0.000442 average fractional NGS count over selection days 2 and 3 (reads of this peptide / all reads for the bait, averaged over …
44 | chain 1 T13M | 0.000376 average fractional NGS count over selection days 2 and 3 (reads of this peptide / all reads for the bait, averaged over …
45 | chain 1 T13D | 0.00412 average fractional NGS count over selection days 2 and 3 (reads of this peptide / all reads for the bait, averaged over …
46 | chain 1 T13W | 0.000505 average fractional NGS count over selection days 2 and 3 (reads of this peptide / all reads for the bait, averaged over …
47 | chain 1 T13P | 0.000265 average fractional NGS count over selection days 2 and 3 (reads of this peptide / all reads for the bait, averaged over …
48 | chain 1 T13V | 0.0019 average fractional NGS count over selection days 2 and 3 (reads of this peptide / all reads for the bait, averaged over …
49 | chain 1 T13H | 0.00485 average fractional NGS count over selection days 2 and 3 (reads of this peptide / all reads for the bait, averaged over …
50 | chain 1 T13G | 0.00624 average fractional NGS count over selection days 2 and 3 (reads of this peptide / all reads for the bait, averaged over …

Row | Variant | screen value
51 | chain 1 T13Y | 0.00269 average fractional NGS count over selection days 2 and 3 (reads of this peptide / all reads for the bait, averaged over …
52 | chain 1 T13A | 0.00106 average fractional NGS count over selection days 2 and 3 (reads of this peptide / all reads for the bait, averaged over …
53 | chain 1 T13R | 0.00097 average fractional NGS count over selection days 2 and 3 (reads of this peptide / all reads for the bait, averaged over …
54 | chain 1 H9T | 0.00161 average fractional NGS count over selection days 2 and 3 (reads of this peptide / all reads for the bait, averaged over …
55 | chain 1 H9S | 0.00629 average fractional NGS count over selection days 2 and 3 (reads of this peptide / all reads for the bait, averaged over …
56 | chain 1 H9E | 0.00208 average fractional NGS count over selection days 2 and 3 (reads of this peptide / all reads for the bait, averaged over …
57 | chain 1 H9V | 0.00147 average fractional NGS count over selection days 2 and 3 (reads of this peptide / all reads for the bait, averaged over …
58 | chain 1 H9N | 0.00523 average fractional NGS count over selection days 2 and 3 (reads of this peptide / all reads for the bait, averaged over …
59 | chain 1 H9I | 0.00113 average fractional NGS count over selection days 2 and 3 (reads of this peptide / all reads for the bait, averaged over …
60 | chain 1 H9G | 0.00212 average fractional NGS count over selection days 2 and 3 (reads of this peptide / all reads for the bait, averaged over …
61 | chain 1 H9K | 0.0135 average fractional NGS count over selection days 2 and 3 (reads of this peptide / all reads for the bait, averaged over …
62 | chain 1 H9A | 0.00146 average fractional NGS count over selection days 2 and 3 (reads of this peptide / all reads for the bait, averaged over …
63 | chain 1 H9R | 0.00234 average fractional NGS count over selection days 2 and 3 (reads of this peptide / all reads for the bait, averaged over …
64 | chain 1 H2A | 0.000678 average fractional NGS count over selection days 2 and 3 (reads of this peptide / all reads for the bait, averaged over …
65 | chain 1 H2E | 0.000801 average fractional NGS count over selection days 2 and 3 (reads of this peptide / all reads for the bait, averaged over …
66 | chain 1 H2I | 0.000473 average fractional NGS count over selection days 2 and 3 (reads of this peptide / all reads for the bait, averaged over …
67 | chain 1 H2R | 0.000186 average fractional NGS count over selection days 2 and 3 (reads of this peptide / all reads for the bait, averaged over …
68 | chain 1 H2W | 0.000523 average fractional NGS count over selection days 2 and 3 (reads of this peptide / all reads for the bait, averaged over …
69 | chain 1 H2Y | 0.000608 average fractional NGS count over selection days 2 and 3 (reads of this peptide / all reads for the bait, averaged over …
70 | chain 1 H2N | 0.000593 average fractional NGS count over selection days 2 and 3 (reads of this peptide / all reads for the bait, averaged over …
71 | chain 1 H2G | 0.0014 average fractional NGS count over selection days 2 and 3 (reads of this peptide / all reads for the bait, averaged over …
72 | chain 1 H2S | 0.0241 average fractional NGS count over selection days 2 and 3 (reads of this peptide / all reads for the bait, averaged over …
73 | chain 1 H2D | 0.00139 average fractional NGS count over selection days 2 and 3 (reads of this peptide / all reads for the bait, averaged over …
74 | chain 1 H2Q | 0.00104 average fractional NGS count over selection days 2 and 3 (reads of this peptide / all reads for the bait, averaged over …
75 | chain 1 H2V | 0.00468 average fractional NGS count over selection days 2 and 3 (reads of this peptide / all reads for the bait, averaged over …
